# Test system: Escherichia coli TOP10
# Experiment: shrunken log2 fold change of peptide-encoding DNA abundance (4.5 h post-induction vs induction); higher = less antimicrobial activity (less host growth inhibition)
# Conditions: time post-induction: 4.5 h; library: site-saturation at positions 5, 18, 19, 20
# 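Further: peptides expressed intracellularly from a pBAD plasmid library in pooled LB shake-flask culture, induced with 0.3% L-arabinose, DNA abundance read by NGS, three biological replicates, DESeq2 with apeglm shrinkage.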
row,Sequence,shrunken log2 fold change
1,RRIRQRPPRLPRPRPRPTLGPRP,0.269
2,RRIRIRPPRLPRPRPRPTEAPRP,-0.153
3,RRIRDRPPRLPRPRPRPWWRPRP,0.116
4,RRIRIRPPRLPRPRPRPDETPRP,-0.183
5,RRIRTRPPRLPRPRPRPNSLPRP,0.0607
6,RRIRLRPPRLPRPRPRPAEGPRP,0.242
7,RRIRARPPRLPRPRPRPNWKPRP,-0.0233
8,RRIRQRPPRLPRPRPRPMHIPRP,-0.377
9,RRIRPRPPRLPRPRPRPTDPPRP,0.0787
10,RRIRPRPPRLPRPRPRPETIPRP,-0.157
11,RRIRLRPPRLPRPRPRPAAPPRP,0.545
12,RRIRFRPPRLPRPRPRPIDVPRP,-0.146
13,RRIRIRPPRLPRPRPRPNFCPRP,-0.162
14,RRIRPRPPRLPRPRPRPWTRPRP,0.0201
15,RRIRSRPPRLPRPRPRPWRTPRP,0.311
16,RRIRLRPPRLPRPRPRPPAHPRP,0.445
17,RRIRCRPPRLPRPRPRPAKMPRP,0.104
18,RRIRERPPRLPRPRPRPEPQPRP,0.519
19,RRIRARPPRLPRPRPRPCKVPRP,-0.164
20,RRIRWRPPRLPRPRPRPQDYPRP,-0.406
21,RRIRERPPRLPRPRPRPNYSPRP,-0.63
22,RRIRTRPPRLPRPRPRPQNLPRP,-0.135

row,Sequence,shrunken log2 fold change
1,RRIRCRPPRLPRPRPRPSWPPRP,-0.155
2,RRIRWRPPRLPRPRPRPPIWPRP,0.628
3,RRIRYRPPRLPRPRPRPGSIPRP,-0.606
4,RRIRVRPPRLPRPRPRPHCVPRP,-0.315
5,RRIRTRPPRLPRPRPRPPRQPRP,0.52
6,RRIRHRPPRLPRPRPRPGIMPRP,-0.566
7,RRIRPRPPRLPRPRPRPIKCPRP,-0.358
8,RRIRIRPPRLPRPRPRPMVMPRP,-0.138
9,RRIRTRPPRLPRPRPRPSNVPRP,-0.337
10,RRIRYRPPRLPRPRPRPAKSPRP,-0.156
11,RRIRLRPPRLPRPRPRPMDVPRP,0.0104
12,RRIRRRPPRLPRPRPRPDCHPRP,0.619
13,RRIRVRPPRLPRPRPRPIVKPRP,-0.0955
14,RRIRHRPPRLPRPRPRPKVAPRP,-0.049
15,RRIRTRPPRLPRPRPRPLWKPRP,-0.178
16,RRIRVRPPRLPRPRPRPHIVPRP,-0.165
17,RRIRCRPPRLPRPRPRPNNNPRP,-0.797
18,RRIRYRPPRLPRPRPRPNCHPRP,-0.507
19,RRIRARPPRLPRPRPRPHYQPRP,-0.459
20,RRIRKRPPRLPRPRPRPKYAPRP,0.208
21,RRIRVRPPRLPRPRPRPKLLPRP,-0.0409
22,RRIRTRPPRLPRPRPRPDCEPRP,0.0084

row,Sequence,shrunken log2 fold change
1,RRIRMRPPRLPRPRPRPVMNPRP,0.196
2,RRIRMRPPRLPRPRPRPDLDPRP,2.65
3,RRIRYRPPRLPRPRPRPRFDPRP,-0.51
4,RRIRARPPRLPRPRPRPCYIPRP,-0.607
5,RRIRIRPPRLPRPRPRPFLNPRP,-0.429
6,RRIRHRPPRLPRPRPRPMMWPRP,-0.0542
7,RRIRPRPPRLPRPRPRPFIEPRP,-0.245
8,RRIRHRPPRLPRPRPRPKHLPRP,-0.237
9,RRIRKRPPRLPRPRPRPSDMPRP,0.0199
10,RRIRCRPPRLPRPRPRPARDPRP,1.84
11,RRIRRRPPRLPRPRPRPEPSPRP,0.228
12,RRIRQRPPRLPRPRPRPARKPRP,0.0862
13,RRIRARPPRLPRPRPRPYMPPRP,-0.829
14,RRIRLRPPRLPRPRPRPPWTPRP,0.411
15,RRIRNRPPRLPRPRPRPYMGPRP,-1.97
16,RRIRPRPPRLPRPRPRPGVGPRP,0.53
17,RRIRCRPPRLPRPRPRPDKWPRP,0.184
18,RRIRYRPPRLPRPRPRPYQWPRP,-0.257
19,RRIRSRPPRLPRPRPRPCPYPRP,0.0125
20,RRIRVRPPRLPRPRPRPDDEPRP,-0.125
21,RRIRWRPPRLPRPRPRPMLEPRP,-0.0685
22,RRIRKRPPRLPRPRPRPYNMPRP,-0.352

row,Sequence,shrunken log2 fold change
1,RRIRQRPPRLPRPRPRPISRPRP,-0.0404
2,RRIRWRPPRLPRPRPRPKETPRP,0.0203
3,RRIRWRPPRLPRPRPRPLFHPRP,-0.0933
4,RRIRERPPRLPRPRPRPTEQPRP,-0.00926
5,RRIRNRPPRLPRPRPRPRMQPRP,-0.0634
6,RRIRNRPPRLPRPRPRPTQDPRP,0.387
7,RRIRARPPRLPRPRPRPWANPRP,0.201
8,RRIRVRPPRLPRPRPRPFVSPRP,-0.679
9,RRIRDRPPRLPRPRPRPCLGPRP,-0.015
10,RRIRARPPRLPRPRPRPLEHPRP,0.0565
11,RRIRPRPPRLPRPRPRPSTMPRP,-0.297
12,RRIRTRPPRLPRPRPRPGTTPRP,-0.342
13,RRIRARPPRLPRPRPRPQKGPRP,0.0244
14,RRIRDRPPRLPRPRPRPTELPRP,0.103
15,RRIRCRPPRLPRPRPRPIEDPRP,0.102
16,RRIRTRPPRLPRPRPRPPGCPRP,0.528
17,RRIRHRPPRLPRPRPRPQMMPRP,-0.279
18,RRIRYRPPRLPRPRPRPFLDPRP,-0.00748
19,RRIRGRPPRLPRPRPRPAYRPRP,0.181
20,RRIRIRPPRLPRPRPRPWRIPRP,-0.409
21,RRIRSRPPRLPRPRPRPFSMPRP,-0.0498
22,RRIRPRPPRLPRPRPRPLGIPRP,-0.0635

row,Sequence,shrunken log2 fold change
1,RRIRKRPPRLPRPRPRPFNYPRP,-0.463
2,RRIRRRPPRLPRPRPRPQYNPRP,-0.224
3,RRIRPRPPRLPRPRPRPQMQPRP,-0.254
4,RRIRERPPRLPRPRPRPPPVPRP,0.261
5,RRIRVRPPRLPRPRPRPKDLPRP,0.0892
6,RRIRTRPPRLPRPRPRPMQGPRP,0.321
7,RRIRVRPPRLPRPRPRPSSTPRP,-0.398
8,RRIRFRPPRLPRPRPRPSYYPRP,-1.07
9,RRIRARPPRLPRPRPRPLMNPRP,-0.178
10,RRIRARPPRLPRPRPRPPPKPRP,1.29
11,RRIRKRPPRLPRPRPRPLMHPRP,0.0704
12,RRIRGRPPRLPRPRPRPFSVPRP,0.429
13,RRIRWRPPRLPRPRPRPGACPRP,0.188
14,RRIRTRPPRLPRPRPRPSHHPRP,-0.646
15,RRIRCRPPRLPRPRPRPHQLPRP,-0.465
16,RRIRKRPPRLPRPRPRPKQTPRP,0.00774
17,RRIRRRPPRLPRPRPRPVMHPRP,0.0548
18,RRIRLRPPRLPRPRPRPKNLPRP,0.0548
19,RRIRNRPPRLPRPRPRPMNNPRP,-0.749
20,RRIRARPPRLPRPRPRPVVQPRP,0.511
21,RRIRNRPPRLPRPRPRPHTLPRP,-0.39

# Source: the supplement of paper PMC9112550, “Optimization of the antimicrobial peptide Bac7 by deep mutational scanning” (BMC Biology, 2022)
